Source: article PMC2789240, “Comparative structural, kinetic and inhibitor studies of Trypanosoma brucei trypanothione reductase with T. cruzi^” (Molecular and Biochemical Parasitology, 2010)

Test system: N[C@@H](CCC(=O)N[C@H]1CSSC[C@H](NC(=O)CC[C@H](N)C(=O)O)C(=O)NCC(=O)NCCCNCCCCNC(=O)CNC1=O)C(=O)O
Test: purified protein, by the assay type
Settings: pH 7.4, 25.0 °C

Row | Substance | Km (other: 340 nm assay) | Km (other: saturating NADPH)
1 | TbTryR (Trypanosoma brucei brucei TREU927) | 6.9 ± 0.7 µM | 
2 | TbTryR (recombinant T. b. brucei trypanothione reductase) (Trypanosoma brucei brucei TREU927) |  | 2.35 ± 0.07 µM
